Stoichiometry N data for 1 substance are collected here from article PMC3351150.

In this test the target is controller protein C.Esp1396I. The experiment in a line: crystal structure.

For orientation: stoichiometry N means a count of units in the complex or per binding partner.

In the case of “controller protein C.Esp1396I (natural protein)”, the stoichiometry N was 2.
